B1: 7C1 (antibody, V domains shown)
VH: EVQLLESGGGLVQPGGSLRLSCTASGFTFSDNHMSWVRQAPGKGLDWVSGISESGGSTNYADSVKGRFSTSRDNSKSTLYLDMNSLRAEDTAIYYCAKGRFSTSSSHFYRAVYGMDVWGQGTAVTVSS
VL: DIQLTQSPSSLSASVGDRVTITCRASQGISSYLAWYQQKPGKAPKLLIYAASTLQSGVPSRFSGSGSGTDFTLTISSLQPEDFATYYCQQLSSYPLSFGGGTKVEIK
notes: also called optimized anti-PcrV mAb clone 7C1
B2: 13-42 mAb (antibody, V domains shown)
VH: B1 VH with N32Y, H33P, Y60D, S102C, S104N, H107C, Y109F
VL: B1 VL
B3: 3A9 (antibody, V domains shown)
VH: B1 VH with N32Y, H33S, T103D, S105T, S106K, Y109F
VL: B1 VL
notes: also called optimized anti-PcrV mAb clone 3A9
B4: 5B3 (antibody, V domains shown)
VH: B1 VH with N32Y, H33P, Y60D, T103Q, S104D, S106Y, Y109F
VL: B1 VL
notes: also called optimized anti-PcrV mAb clone 5B3
B5: 6A10 (antibody, V domains shown)
VH: B1 VH with Y109F
VL: B1 VL
notes: also called optimized anti-PcrV mAb clone 6A10
B6: 2B1 (antibody, V domains shown)
VH: B1 VH with D31S, N32Y, H33P, T103G, S104E, S106H, Y109F
VL: B1 VL
notes: also called optimized anti-PcrV mAb clone 2B1
B7: 4A10 (antibody, V domains shown)
VH: B1 VH with D31S, N32Y, H33P, T103D, S104A, S106E, Y109F
VL: B1 VL with A43T, S97T
notes: also called optimized anti-PcrV mAb clone 4A10
B8: 3A11 (antibody, V domains shown)
VH: B1 VH with D31S, N32Y, T103Q, Y109F
VL: B1 VL with S97T
notes: also called optimized anti-PcrV mAb clone 3A11
B9: 3H10 (antibody, V domains shown)
VH: B1 VH with N32Y, H33P, Y60D, T103D, S104Y, S106Q, Y109F
VL: B1 VL with S92N, S97T
notes: also called optimized anti-PcrV mAb clone 3H10
B10: 3G3 (antibody, V domains shown)
VH: B1 VH with N32Y, H33P, N59Y, Y60D, T103A, S105A, S106G, Y109F
VL: B1 VL with S30R
notes: also called optimized anti-PcrV mAb clone 3G3
B11: 3B12 (antibody, V domains shown)
VH: B1 VH with D31S, T103D, S104E, S105Y, S106G, Y109F
VL: B1 VL with S97T
notes: also called optimized anti-PcrV mAb clone 3B12
B12: 7B2 (antibody, V domains shown)
VH: B1 VH with N32Y, H33P, S104D, Y109F
VL: B1 VL
notes: also called optimized anti-PcrV mAb clone 7B2
B13: 7B1 (antibody, V domains shown)
VH: B1 VH with H33Y, G50V, S104L, Y109F
VL: B1 VL with S97T
notes: also called 7B1-IgG1; 7B1 mAb
B14: 8C1 (antibody, V domains shown)
VH: B1 VH with S104N, S106A, Y109F
VL: B1 VL with S97T
notes: also called optimized anti-PcrV mAb clone 8C1
B15: 6D10 (antibody, V domains shown)
VH: B1 VH with N32Y, H33P, S104D
VL: B1 VL
notes: also called optimized anti-PcrV mAb clone 6D10

From US20220289830A1 (STAIDSON BEIJING BIOPHARMACEUTICALS, published 2022) come the findings set out here.

Where a chain is given by its changes, count along the chain named.

One assay deals with T1, native PcrV on live Pseudomonas aeruginosa (strains O6-57/66, O11-PA103, O1-52/66, O16-177/81) (Pseudomonas aeruginosa). Put plainly: cell-based or functional assay.
As to B1, the “A549 cytotoxicity assay IC50 (P. aeruginosa strain PA103(O11))” value was 1.36 µg/mL.
Same read-out and setting: for B2 the value was 2.67 µg/mL.
The same measure, in the same setting: for B3 the value was 1.21 µg/mL.
Same read-out and setting: for B4 the value was 2.39 µg/mL; for B5, 2 µg/mL.
B6: the “A549 cytotoxicity assay IC50 (P. aeruginosa strain PA103(O11))” value turned out to be 3.01 µg/mL.
Turning to B7, the “A549 cytotoxicity assay IC50 (P. aeruginosa strain PA103(O11))” value was determined as 2.8 µg/mL.
Still for that read-out and setting: for B8 the value was 0.91 µg/mL; for B9, 1.78 µg/mL.
For the molecule B10, the “A549 cytotoxicity assay IC50 (P. aeruginosa strain PA103(O11))” value stood at 2.75 µg/mL.
B11: the “A549 cytotoxicity assay IC50 (P. aeruginosa strain PA103(O11))” value is 2.68 µg/mL.
On to B12, for which the “A549 cytotoxicity assay IC50 (P. aeruginosa strain PA103(O11))” value turned out to be 2.32 µg/mL.
The same measure, in the same setting: for B13 the value was 1.06 µg/mL.
The same measure, in the same setting: for B14 the value was 1.94 µg/mL; for B15, 2.63 µg/mL.

Another assay concerns the target T2, recombinant Pseudomonas aeruginosa PcrV, full-length (PAO), His-tagged (Pseudomonas aeruginosa). Put plainly: ELISA, PcrV coated on the plate, goat anti-human Fc-AP detection.
For the molecule B1, the EC50 stood at 0.134 µg/mL.
Regarding B2, the concentration for a half-maximal effect (EC50) came out at 0.132 µg/mL.
With B3, the EC50 was 0.116 µg/mL.
On to B4, for which the EC50 stood at 0.109 µg/mL.
For B5, the EC50 turned out to be 0.104 µg/mL.
With B6, the concentration giving a half-maximal response (EC50) was determined as 0.162 µg/mL.
As to B7, the concentration for a half-maximal effect (EC50) came out at 0.113 µg/mL.
Take B8: the 50% effective concentration (EC50) was 0.0952 µg/mL.
For B9, the EC50 worked out at 0.149 µg/mL.
Same read-out and setting: for B10 the value was 0.0936 µg/mL; for B11, 0.118 µg/mL.
Still for that read-out and setting: next, B12: 0.0967 µg/mL.
Take B13: the half-maximal effective concentration (EC50) is 0.125 µg/mL.
As for B14, the EC50 was 0.111 µg/mL.

Another assay concerns the target T1, native PcrV on live Pseudomonas …. The assay can be described thus: cell-based or functional assay. This is another data set of the same source.
For the molecule B1, the “RBC lysis Average IC50 over the three strains” value is 0.195 µg/mL; the “RBC lysis IC50, strain O1-52/66” value turned out to be 0.367 µg/mL; the “RBC lysis IC50, strain O6-57/66” value amounted to 0.0767 µg/mL; the “RBC lysis IC50, strain O16-177/81” value came out at 0.141 µg/mL.
B2: the “RBC lysis Average IC50 over the three strains” value was 0.355 µg/mL; the “RBC lysis IC50, strain O1-52/66” value turned out to be 0.472 µg/mL; the “RBC lysis IC50, strain O6-57/66” value came to 0.13 µg/mL; the “RBC lysis IC50, strain O16-177/81” value stood at 0.464 µg/mL.
For the molecule B13, the “RBC lysis Average IC50 over the three strains” value was found to be 0.214 µg/mL; the “RBC lysis IC50, strain O1-52/66” value was 0.308 µg/mL; the “RBC lysis IC50, strain O6-57/66” value was 0.138 µg/mL; the “RBC lysis IC50, strain O16-177/81” value came out at 0.197 µg/mL.
B14: the “RBC lysis Average IC50 over the three strains” value was determined as 0.266 µg/mL; the “RBC lysis IC50, strain O1-52/66” value worked out at 0.424 µg/mL; the “RBC lysis IC50, strain O6-57/66” value was found to be 0.121 µg/mL; the “RBC lysis IC50, strain O16-177/81” value is 0.252 µg/mL.

For another assay the target is unchanged. The assay can be described thus: cell-based or functional assay. The source holds these as a separate data set.
Take B1: the “A549 cell lysis Average IC50 over the strains” value came to 1.18 µg/mL; the “A549 cell lysis IC50, strain O1-52/66” value worked out at 2 µg/mL; the “A549 cell lysis IC50, strain O6-57/66” value was 0.496 µg/mL; the “A549 cell lysis IC50, strain O11-PA103” value was found to be 1.12 µg/mL. In addition, the “A549 cell lysis IC50, strain O16-177/81” value amounted to 1.09 µg/mL.
For the molecule B2, the “A549 cell lysis Average IC50 over the strains” value was 1.38 µg/mL; the “A549 cell lysis IC50, strain O1-52/66” value stood at 2.34 µg/mL; the “A549 cell lysis IC50, strain O6-57/66” value amounted to 0.891 µg/mL; the “A549 cell lysis IC50, strain O11-PA103” value is 1.21 µg/mL. Also, the “A549 cell lysis IC50, strain O16-177/81” value is 1.08 µg/mL.
Consider B13, for which the “A549 cell lysis Average IC50 over the strains” value came out at 2.13 µg/mL; the “A549 cell lysis IC50, strain O1-52/66” value turned out to be 4.56 µg/mL; the “A549 cell lysis IC50, strain O6-57/66” value was 0.503 µg/mL; the “A549 cell lysis IC50, strain O11-PA103” value is 2.61 µg/mL. Also, the “A549 cell lysis IC50, strain O16-177/81” value came to 0.861 µg/mL.
In the case of B14, the “A549 cell lysis Average IC50 over the strains” value is 1.05 µg/mL; the “A549 cell lysis IC50, strain O6-57/66” value was found to be 0.721 µg/mL; the “A549 cell lysis IC50, strain O11-PA103” value stood at 1.54 µg/mL; the “A549 cell lysis IC50, strain O16-177/81” value worked out at 0.881 µg/mL.

Another assay addresses T2, recombinant Pseudomonas aeruginosa …. The assay can be described thus: SPR (BIACORE).
Regarding B1, the dissociation constant (Kd) turned out to be 0.0457 nM.
Still for that read-out and setting: next, B13: 0.0847 nM; B14: 0.0316 nM.
For the molecule B15, the Kd came out at 0.052 nM.

For the next assay, the target named is T1, native PcrV on live Pseudomonas …. Put plainly: cell-based or functional assay. The source holds these as a separate data set.
Consider B1, for which the “RBC lysis assay IC50 (P. aeruginosa strain 57/66(O6))” value worked out at 0.1 µg/mL.
Still for that read-out and setting: next, B2: 0.23 µg/mL.
With B3, the “RBC lysis assay IC50 (P. aeruginosa strain 57/66(O6))” value came to 0.23 µg/mL.
With B4, the “RBC lysis assay IC50 (P. aeruginosa strain 57/66(O6))” value came out at 0.12 µg/mL.
Consider B5, for which the “RBC lysis assay IC50 (P. aeruginosa strain 57/66(O6))” value came to 0.04 µg/mL.
Take B6: the “RBC lysis assay IC50 (P. aeruginosa strain 57/66(O6))” value was 0.12 µg/mL.
Consider B7, for which the “RBC lysis assay IC50 (P. aeruginosa strain 57/66(O6))” value turned out to be 0.16 µg/mL.
B9: the “RBC lysis assay IC50 (P. aeruginosa strain 57/66(O6))” value amounted to 0.16 µg/mL.
Regarding B10, the “RBC lysis assay IC50 (P. aeruginosa strain 57/66(O6))” value was 0.18 µg/mL.
Still for that read-out and setting: next, B11: 0.16 µg/mL; B12: 0.05 µg/mL.
With B13, the “RBC lysis assay IC50 (P. aeruginosa strain 57/66(O6))” value is 0.1 µg/mL.
With B14, the “RBC lysis assay IC50 (P. aeruginosa strain 57/66(O6))” value came to 0.12 µg/mL.
Regarding B15, the “RBC lysis assay IC50 (P. aeruginosa strain 57/66(O6))” value came to 0.16 µg/mL.

A further assay deals with T2, recombinant Pseudomonas aeruginosa …. Put plainly: BLI.
On to B1, for which the Kd was 0.101 nM.
As for B2, the dissociation constant (Kd) turned out to be 0.414 nM.
As for B3, the Kd came to 0.533 nM.
Take B4: the Kd stood at 0.455 nM.
Same read-out and setting: for B5 the value was 0.204 nM; for B6, 0.194 nM.
With B7, the Kd was found to be 0.606 nM.
Regarding B8, the dissociation constant (Kd) was determined as 0.126 nM.
Regarding B9, the equilibrium dissociation constant (Kd) is 0.779 nM.
Still for that read-out and setting: next, B10: 0.381 nM; B11: 0.167 nM.
Still for that read-out and setting: for B12 the value was 0.0875 nM.
The same measure, in the same setting: for B13 the value was less than 0.001 nM; for B14, 0.33 nM.
